Assay results reported in patent US9683053B2 (Glenmark Pharmaceuticals S.A., dated 2017).

Legend:
Assay in all cases: co-expression, protein-A, scanning densitometry of non-reduced SDS-PAGE
VL-BT beta chain = VL-BT beta chain (Artificial Sequence)
[1] = target: VH(anti-hCD19)-CH1 delta-BT beta c-myc_VL(anti-hCD19)-CK gamma molecule (half-molecule) (Artificial Sequence)
[2] = target: VH(anti-hCD19)-CH13-BT beta c-myc_VL(anti-hCD19)-CK3 molecule (half-molecule) (Artificial Sequence)
VL-BT beta F405A chain = VL-BT beta F405A chain (Artificial Sequence)
VL-BT beta F405A chain (Artificial Sequence), sequence (chain, as listed by the source F405A F405A): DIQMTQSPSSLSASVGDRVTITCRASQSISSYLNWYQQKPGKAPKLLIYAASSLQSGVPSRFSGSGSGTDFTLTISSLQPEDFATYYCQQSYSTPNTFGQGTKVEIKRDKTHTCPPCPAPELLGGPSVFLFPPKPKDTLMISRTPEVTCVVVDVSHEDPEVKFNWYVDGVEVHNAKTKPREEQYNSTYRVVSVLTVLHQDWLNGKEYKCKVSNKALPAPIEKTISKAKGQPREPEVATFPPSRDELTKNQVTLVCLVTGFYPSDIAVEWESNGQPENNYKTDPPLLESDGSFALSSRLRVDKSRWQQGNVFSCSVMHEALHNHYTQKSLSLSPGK

VL-BT beta chain (Artificial Sequence), sequence (chain, as listed by the source): as the sequence (chain, as listed by the source F405A F405A) above, with A293C counted along it
VH(anti-hCD19)-CH13-BT beta c-myc_VL(anti-hCD19)-CK3 molecule (half-molecule) (Artificial Sequence), sequence (heavy, as listed by the source, chain 1 of 2): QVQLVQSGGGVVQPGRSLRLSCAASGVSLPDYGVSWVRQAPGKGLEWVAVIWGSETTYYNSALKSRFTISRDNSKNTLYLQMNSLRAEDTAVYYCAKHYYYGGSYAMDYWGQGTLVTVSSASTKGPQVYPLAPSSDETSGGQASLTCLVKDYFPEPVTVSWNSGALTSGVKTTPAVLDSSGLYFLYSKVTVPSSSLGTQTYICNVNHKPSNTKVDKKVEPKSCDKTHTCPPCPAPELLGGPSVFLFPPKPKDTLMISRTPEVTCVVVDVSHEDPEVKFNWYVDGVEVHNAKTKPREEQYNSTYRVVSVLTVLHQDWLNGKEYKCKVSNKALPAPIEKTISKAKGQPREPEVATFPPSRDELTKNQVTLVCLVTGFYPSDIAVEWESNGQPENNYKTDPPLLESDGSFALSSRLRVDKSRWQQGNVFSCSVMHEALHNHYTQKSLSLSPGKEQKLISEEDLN
VH(anti-hCD19)-CH13-BT beta c-myc_VL(anti-hCD19)-CK3 molecule (half-molecule) (Artificial Sequence), sequence (light, as listed by the source, chain 2 of 2): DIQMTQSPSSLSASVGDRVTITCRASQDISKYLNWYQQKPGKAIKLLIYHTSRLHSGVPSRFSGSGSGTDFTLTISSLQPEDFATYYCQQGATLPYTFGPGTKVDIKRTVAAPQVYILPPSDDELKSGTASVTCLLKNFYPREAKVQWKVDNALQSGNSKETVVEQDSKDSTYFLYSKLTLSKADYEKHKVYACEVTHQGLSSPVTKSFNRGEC
VH(anti-hCD19)-CH1 delta-BT beta c-myc_VL(anti-hCD19)-CK gamma molecule (half-molecule) (Artificial Sequence), sequence (heavy, as listed by the source, chain 1 of 2): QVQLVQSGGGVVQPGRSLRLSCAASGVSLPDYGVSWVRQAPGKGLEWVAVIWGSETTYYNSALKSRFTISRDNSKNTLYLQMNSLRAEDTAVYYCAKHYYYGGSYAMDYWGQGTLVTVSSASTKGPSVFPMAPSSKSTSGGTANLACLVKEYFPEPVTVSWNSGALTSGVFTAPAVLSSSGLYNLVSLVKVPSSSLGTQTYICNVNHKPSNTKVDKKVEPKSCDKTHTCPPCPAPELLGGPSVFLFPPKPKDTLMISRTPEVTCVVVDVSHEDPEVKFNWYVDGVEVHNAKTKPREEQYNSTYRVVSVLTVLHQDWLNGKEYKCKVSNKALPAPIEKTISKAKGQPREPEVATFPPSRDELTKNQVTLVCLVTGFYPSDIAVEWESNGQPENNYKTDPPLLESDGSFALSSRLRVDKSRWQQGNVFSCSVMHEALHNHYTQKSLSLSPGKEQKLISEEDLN
VH(anti-hCD19)-CH1 delta-BT beta c-myc_VL(anti-hCD19)-CK gamma molecule (half-molecule) (Artificial Sequence), sequence (light, as listed by the source, chain 2 of 2): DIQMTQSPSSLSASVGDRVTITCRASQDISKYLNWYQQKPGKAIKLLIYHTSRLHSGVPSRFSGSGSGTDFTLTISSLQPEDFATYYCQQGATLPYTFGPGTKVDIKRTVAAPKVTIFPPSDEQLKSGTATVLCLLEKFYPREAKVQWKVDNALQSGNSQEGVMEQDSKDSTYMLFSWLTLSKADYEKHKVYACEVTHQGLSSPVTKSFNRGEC

B1: BT alpha His chain (other)
chain: DKTHTCPPCPAPELLGGPSVFLFPPKPKDTLMISRTPEVTCVVVDVSHEDPEVKFNWYVDGVEVHNAKTKPREEQYNSTYRVVSVLTVLHQDWLNGKEYKCKVSNKALPAPIEKTISKAKGQPREPQVYTLPPSRDELTKNQVKLVCLVTGFYPSDIAVEWESNGQPENNYYTTPPVLDSDGSFSLVSWLNVDKSRWQQGNVFSCSVMHEALHNHYTQKSLSLSPGKHHHHHH
hetero-dimer percentage of the protein-A purified material (VL-BT beta chain): ≥ 76.1%
hetero-dimer percentage of the protein-A purified material [1]: ≥ 50%
hetero-dimer percentage of the protein-A purified material [2]: ≥ 51.9%
hetero-dimer percentage of the protein-A purified material (VL-BT beta F405A chain): ≥ 80.7%
